# Residue numbers refer to the chain shown, from its start.
# B1: 01C03R3LS His-tagged VHH (VHH)
# VHH: EVQLVESGGGLVQPGGSLRLSCVASGLPGSSSRMAWFAQAPGKEREFVAAIAWRGRTSYKYYSDSVKGRFTVSGDNAKRTLDLQMKDLNPEDTALYFCAAHPNDDGDPRISGNYQYWGQGTQVTVSS
# B2: 01G07R2L His-tagged VHH (VHH)
# VHH: B1 VHH with E1Q, G29F, A52G, S63A, R79K, N89K
# B3: 01C11R2 His-tagged VHH (VHH)
# VHH: EVQLVESGGGLVQTGGSLRLSCAASGRTFSTYRMGWFRQAPGKEREFVAAISWSTGSTYYADSVKGRFAISRDNAKNTIYLQMNSLKPEDTAVYYCAAGMVATTRSSAYPYWGQGTQVTVSS
# B4: 01D01R3 His-tagged VHH (VHH)
# VHH: EVQLVESGGGLVQAGGSLRLSCAASGRTFSVYGMGWFRQAPGQERAFVAAISWSDGSTYYADSVKGRFTISRDNAKNTMYLQMNSLKPEDTAVYFCAADLTGWGLDADVSEYDYWGQGTQVTVSS
# B5: 01G04R3 His-tagged VHH (VHH)
# VHH: B4 VHH with E1Q
# B6: 01E03R2 His-tagged VHH (VHH)
# VHH: B4 VHH with Q120L
# B7: 02B11R3 His-tagged VHH (VHH)
# VHH: EVQLVESGGGLVQAGGSLRLSCAASGRTFSPYGMGWFRQTPGKERAFVAAVDWNDGSTYYSDSVKGRFTISRDNAKNTVYLQMNSLKSEDTAVYYCAADLTGWGLDADVSEYDYWGQGTLVTVSS
# B8: 01E02R3LS His-tagged VHH (VHH)
# VHH: EVQLVESGGGLVETGGSLRLSCAASGRTESTYTMAWFRQAPGKERERVATISFSGSTTTYLASVQGRFTISRDGAKNTIFLQMNGLKPEDTAVYYCALDTRRRVGSSPRFYDYWGQGTLVTVSS
# B9: 01F12R2 His-tagged VHH (VHH)
# VHH: EVQLVESGGGLVQPGGSLRLSCAASGRTFSSYTMGWFRQAPGEEREFVSAISWSSDGTYYKYYTDTVKGRFTISRDNAETTVHLQMNSLKPEDTAVYYCAASSSGTYGDPRSEREYRYWGQGTLVTVSS
# B10: 01F04R2LS His-tagged VHH (VHH)
# VHH: EVQLVESGGGLVQTGGSLRLSCAASGRTFSSYAMGWFRQAPGKEPERDFVAALRWSNDRTYYKYYADSVKGRFTISRDNAKNTVYLQMNTLKPEDTAVYYCAGGNYFSDPRVDKEYNYWGQGTQVTVSS
# B11: 01E03R3 His-tagged VHH (VHH)
# VHH: QVQLVESGGGLVQTGGSLRLSCAASGRTFSVYRVGWFRQAPGKEREFVAAVIWSGASTYKYAADSVKGRFTISRDNAENTVYLQMNSLKPEDTAVYYCAADPLGLPGPDVRVEGGYRHWGQGTLVTVSS
# B12: 01F04R3LS His-tagged VHH (VHH)
# VHH: EVQLVESGGGLVQAGGSLRLSCAASGRTFSRYAMGWFRQAPGKEREFVAAIAWSGGAIYYADFVKGQFTISRDNAKNTVDLEMNRLKPEDTAVYYCGSTRDPRVGDKKFYDYWGQGTQVTVSS
# B13: 01A04R3LS His-tagged VHH (VHH)
# VHH: QVQLVESGGGSVQPGGSLRLSCAASGIDVSISTIMWYRQPPGRQRELVADVIPSGRSTTYTESVKGRFTVTRDNAKNTVYLQMSGLKPEDTAVYYCNAFVRRENYWGQGTQVTVSS
# B14: 01C03R2L His-tagged VHH (VHH)
# VHH: EVQLVESGGGLVQAGGSLRLSCAASGRTLRSYIVGWFRQAPGKEREFVAAVTWSDGRRVTADPVKGRFTISRDNAKNTVYLQMDSLKPEDAAVYYCAVSHGGAYVESRAYEYWGQGTQVTVSS
# B15: 01F05R2LS His-tagged VHH (VHH)
# VHH: QVQLVESGGGLVQAGGSLRLSCAASGSIFAINGMGWYRQAPGKQRELVAVITRGGSTNYADSVKGRFTISRDNAKNTVSLQMNSLKPEDTAVYYCAATGVLAGWAAGDGMDYWGKGTLVTVSS
# B16: 01E01R3LS His-tagged VHH (VHH)
# VHH: QVQLVESGGGLVQAGGSLRLSCAASGRSFSSYNMGWFRQAPGKERDLVAVVTWSGGGTSYADSVKGRFTIARDNANARLYLEMTSLKPEDTAIYYCAATQDWYGGTRAFRAASFHSWGQGTQVTVSS
# B17: 01H03R2L His-tagged VHH (VHH)
# VHH: B16 VHH with Q1E, Q13R, A71S, R110H, Q122L
# B18: 01F03R2LS His-tagged VHH (VHH)
# VHH: EVQLVESGGGLVQAGDSLRLSCAASGRTGSSGAMGWFRQGPGKEREFVAALMWRNTVTYKYYEDSVKGRFTISRDNAKNTAYLQMNSLKPEDTAVYYCAADPDTYGDPRNSGAYDYWGQGTLVTVSS
# B19: 01E10R3 His-tagged VHH (VHH)
# VHH: QVQLVESGGGLVQSGGSLRLSCAASGRTFSDYAMGWFRQAPGKERELVAAITWNGGSTYYADSVKGRFTISRDNAKNTVDLQMNSLKPEDTAVYYCAADPLNSDSAGTYDYWGQGTLVTVSS
# B20: 01C12R2 His-tagged VHH (VHH)
# VHH: EVQLVESGGGLVQAGGSLRLSCAASGRTFGSYSMGWFRQAPGKEREFVGAISWSGSSTYKYYEDSVKGRFTISRDNAKNTVPLQMNSLKPEDTGVYFCGGTMERRDPRRTSAYDYWGQGTLVTVSS
# B21: 01E04R3LS His-tagged VHH (VHH)
# VHH: EVQLVESGGGLVQAGDSLRLSCAASGRTFTTYVMGWFRQAPGKDREFVATITWSGSTNYKYYADPVKGRFTISRDNAKNTVYLQMNSLKPEDTAVYYCTSSTVVTDPRKLNEYAYWGQGTLVTVSS
# B22: 01D02R3LS His-tagged VHH (VHH)
# VHH: QVQLVESGGGLVQAGDSLTLSCAASGRSVGFDTYGMAWFRQAPGKEREFVASIAYNGETTSYADSVQGRFTVTRENAKNTIALRMNGLKPDDTAVYYCAAAQYYLTGTSFPAKFWGQGTLVTVSS
# B23: 01F09R3 His-tagged VHH (VHH)
# VHH: QVQLVESGGGLAQAGGSLTLSCAASGTAAGIDVMGWYRQTPGNSREFVARIFSNDVTHYADSVTGRFTLSRTQDKNTVSLQMNSLKPDDTGVYYCNARIWTGSTTVDYWGQGTQVTVSS
# B24: 01D09R3 His-tagged VHH (VHH)
# VHH: QVQLVESGGGLVQAGGSLRLSCAASGRTFSVYAMGWFRQAPGKERQFVAAITWSGGSTSYADSVKGRFTISRDNAKNTVYLQMNILKPEDTAVYYCAAATNPYFSDYYPDLKYEFDYWGQGTLVTVSS
# B25: 01A07R3 His-tagged VHH (VHH)
# VHH: EVQLVESGGGLVQTGESLRLSCAASGRAFSDLRMAWFRQVPGKEREFVAAVEWRGSSRYYYSADSVKGRFTISRTSPKGETYLQMNGLKPEDTAVYYCAAVSPVVGDPRNSDTYNYWGQGTQVTVSS
# B26: 01E05R2 His-tagged VHH (VHH)
# VHH: QVQLVESGGGLVQAGGSLRLSCAASGRAFSSGRMGWFRQAPGKEREFVAAISWSGHTTYKYYADSVKGRFTISRENAKNTVSLQMNSLKPEDTAVYYCAARQSLVAGGDPRGQSEYDYWGQGTLVTVSS
# B27: 01C02R2 His-tagged VHH (VHH)
# VHH: EVQLVESGGGLVQAGGSLRLSCAASGRSYAMGWFRQAPGKEREFAAAISWSGSRTYYADAVKGRFTISRDNAKNTVYLQMNSLKPEDTAVYYCAADPDGTVVASSGWTNSYEYGYWGQGTLVTVSS
# B28: 01A07R3LS His-tagged VHH (VHH)
# VHH: QVQLVESGGGLVQAGDSLRLSCAASGRTFPTYAMGWFRQAPGKEREFVATIRWSGSTQYKYYADFVKGRFTISRDNAKNTVYLQMDSLKPEDTAVYYCAATTLLGDPRALNEYAYWGQGTQVTVSS
# B29: 01G09R3LS His-tagged VHH (VHH)
# VHH: B28 VHH with Q1E, G105T, E112A
# B30: 01B12R2 His-tagged VHH (VHH)
# VHH: EVQLVESGGGLVQAGGSLRLSCAASGRTFSSGIMGWFRQAPGKEREFVAAIEWSGGNTYKYYAESVKGRFAISRDNAKTTAYLQMGSLNPEDTALYYCAADESPSRYIDLRRPAPYHYWGQGTLVTVSS
# B31: 01D04R3LS His-tagged VHH (VHH)
# VHH: EVQLVESGGGLVQAGGSLRLSCAASGRTFRSYAMGWFRQAPGKEREFVADISWRGGRLYYADSVKGRFTISRDNAKNTVYLQMNSLKPEDTAVYYCAATGDQPAFTTAQGMGAMLEYDYWGQGTLVTVSS
# B32: 01C03R3 His-tagged VHH (VHH)
# VHH: QVQLVESGGGLVQAGGSLRLSCAASGRTFSSYAMGWFRQAPGKEREFVAAIHWNGASTYRYSADSVKGRFTISRDNAKNTVYLQMNSLKPEDTAAYYCAASPPPTVGDVRDPANYDSWGQGTLVTVSS
# B33: 01C02R3 His-tagged VHH (VHH)
# VHH: QVQLVESGGGLVQAGGSLRLSCAASGLSFSSYTMGWFRQVPGKERELISAIHWSGGPTFYSNSVKGRFTISRDNAKDTVYLQMNSLKPEDTAVYYCTAEPVGSMISPDWTYWGQGTLVTVSS
# Target: T1, recombinant human pIgR (hpIgR) (human, UniProt P01833 19-638, limits assumed)
# T1 construct: probably the ECD
# T1 sequence (P01833 19-638 limits assumed): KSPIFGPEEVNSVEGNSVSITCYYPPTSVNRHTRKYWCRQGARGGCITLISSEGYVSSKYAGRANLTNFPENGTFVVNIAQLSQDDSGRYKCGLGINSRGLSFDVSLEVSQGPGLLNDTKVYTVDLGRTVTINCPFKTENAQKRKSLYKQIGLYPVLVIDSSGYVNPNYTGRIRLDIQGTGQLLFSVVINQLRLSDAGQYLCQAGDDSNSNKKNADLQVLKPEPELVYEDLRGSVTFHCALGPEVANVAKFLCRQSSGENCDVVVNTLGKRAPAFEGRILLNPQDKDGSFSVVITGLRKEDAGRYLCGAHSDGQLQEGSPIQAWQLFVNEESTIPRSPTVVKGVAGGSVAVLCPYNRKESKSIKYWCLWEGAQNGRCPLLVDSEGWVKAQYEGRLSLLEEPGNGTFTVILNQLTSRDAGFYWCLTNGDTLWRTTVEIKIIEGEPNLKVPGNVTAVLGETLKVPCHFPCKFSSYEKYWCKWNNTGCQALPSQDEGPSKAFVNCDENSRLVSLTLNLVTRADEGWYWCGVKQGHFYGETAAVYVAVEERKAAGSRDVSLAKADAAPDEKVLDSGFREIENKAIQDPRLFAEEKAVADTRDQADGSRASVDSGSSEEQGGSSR
# Experiment: ELISA, periplasmic VHH, BSA subtracted
# Procedure: Initial Library Screening: After each panning round showing enrichment, 94 individual clones were expressed and tested in an off-phage initial screen for specific binding to mpIgR or hpIgR (respectively depending on the antigen used). Screening of monoclones in an off-phage format was performed by transforming the phagemid pool into a non-amber-suppressor strain of E. coli and picking random colonies. The VHH proteins were recovered in the periplasmic fraction by performing osmotic shock. Periplasmic fractions containing His-tagged nanobodies were tested for binding to hpIgR or mpIgR. Bound nanobody was detected with a polyclonal anti-alpaca VHH domain antibody. Each clone was also tested for non-specific binding to BSA in parallel. The ELISA values obtained on BSA were subtracted from the ELISA values obtained on the respective pIgR antigen.
# Repeat Testing of Positive Hits: The hits identified in the initial screen of the phage pools were re-tested for binding to either hpIgR or mpIgR. Periplasmic fractions were prepared again by performing osmotic shock. Periplasmic fractions containing His-tagged nanobodies were tested for binding to mpIgR. In this assay, bound nanobody was detected with an anti-VHH antibody. Each clone was also tested for non-specific binding to BSA in parallel. The ELISA values obtained on BSA were subtracted from the ELISA values obtained on the respective pIgR antigen.
row,Binder,ELISA (OD)
1,B1,2.11 OD
2,B2,1.54 OD
3,B3,1.3 OD
4,B4,1.95 OD
5,B5,0.73 OD
6,B6,2.13 OD
7,B7,1.35 OD
8,B8,1.69 OD
9,B9,2.12 OD
10,B10,2.09 OD
11,B11,1.07 OD
12,B12,1.98 OD
13,B13,2.15 OD
14,B14,2.37 OD
15,B15,2.4 OD
16,B16,2.2 OD
17,B17,2.18 OD

row,Binder,ELISA (OD)
1,B18,2.14 OD
2,B19,1.96 OD
3,B20,1.85 OD
4,B21,2.13 OD
5,B22,2.45 OD
6,B23,1.85 OD
7,B24,0.55 OD
8,B25,1.68 OD
9,B26,2.1 OD
10,B27,2.26 OD
11,B28,0.48 OD
12,B29,1.9 OD
13,B30,1.78 OD
14,B31,2.06 OD
15,B32,0.56 OD
16,B33,1.8 OD
